In test [1] the target is T1, human IL-8 (human, UniProt P10145 23-99, limits assumed).
T1 construct: also called hIL-8
T1 sequence: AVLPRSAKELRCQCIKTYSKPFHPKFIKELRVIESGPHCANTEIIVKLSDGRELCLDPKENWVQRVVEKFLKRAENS
Description: SPR pH 7.4 40C; 50C 1 week in PBS against initial. As for the experimental part:
The levels of human IL-8 binding to the modified antibodies were analyzed using BIACORE T200 (GE Healthcare). Measurements were carried out at 40° C. by using 0.05% tween20, 40 mM ACES, and 150 mM NaCl at pH 7.4 as the running buffer.
An appropriate amount of Protein A/G (PIERCE) was immobilized onto the Sensor chip CM4 (GE Healthcare) by the amine coupling method and the antibodies of interest was captured. Next, a diluted human IL-8 solution or a running buffer (used as a reference solution) was injected to allow interaction of the antibodies captured onto the sensor chip with human IL-8. The running buffer was also used to dilute human IL-8. To regenerate the sensor chip, 25 mM NaOH and 10 mM glycine-HCl (pH 1.5) were used. The measured binding level of human IL-8 and the amount of antibodies captured at that binding level were extracted using the BIACORE T200 Evaluation Software (GE Healthcare).
The amount of human IL-8-binding per 1000 RU of the amount of antibody captured was calculated for the initial samples and the samples for the thermal acceleration test. Furthermore, the ratio of the human IL-8-binding level for the initial samples to that for samples of the thermal acceleration test was calculated.

Test [2] deals with T1, human IL-8. The test is described as follows: SPR pH 5.8 37C. As for the experimental part:
(§1) The following two running buffers were used, and measurements were carried out at the respective temperatures: (1) 0.05% tween20, 40 mM ACES, 150 mM NaCl, pH 7.4, 40° C.: and (2) 0.05% tween20, 40 mM ACES, 150 mM NaCl, pH 5.8, 37° C.
(§2) An appropriate amount of Protein A/G (PIERCE) was immobilized onto the Sensor chip CM4 (GE Healthcare) by the amine coupling method and the antibodies of interest were captured. Next, a diluted human IL-8 solution or a running buffer (used as a reference solution) was injected to allow interaction of the antibodies captured onto the sensor chip with human IL-8. For the running buffer, either one of the above-mentioned solutions was used, and the respective buffers were also used to dilute human IL-8. To regenerate the sensor chip, 25 mM NaOH and 10 mM glycine-HCl (pH 1.5) were used. KD (M) of each antibody for human IL-8 was calculated based on the association rate constant kon (1/Ms) and dissociation rate constant koff (1/s) which are kinetic parameters calculated from sensorgrams obtained by the measurements. The BIACORE T200 Evaluation Software (GE Healthcare) was used to calculate each parameter.

For test [3], the target named is T1, human IL-8. Description: SPR pH 7.4 40C. The protocol: as §1, §2
Test [4] deals with T2, human IgE (human, UniProt P01854-1 1-428).
T2 construct: whole IgE; also called hIgE
T2 sequence (P01854 other isoform, or with tags, fused parts or gaps): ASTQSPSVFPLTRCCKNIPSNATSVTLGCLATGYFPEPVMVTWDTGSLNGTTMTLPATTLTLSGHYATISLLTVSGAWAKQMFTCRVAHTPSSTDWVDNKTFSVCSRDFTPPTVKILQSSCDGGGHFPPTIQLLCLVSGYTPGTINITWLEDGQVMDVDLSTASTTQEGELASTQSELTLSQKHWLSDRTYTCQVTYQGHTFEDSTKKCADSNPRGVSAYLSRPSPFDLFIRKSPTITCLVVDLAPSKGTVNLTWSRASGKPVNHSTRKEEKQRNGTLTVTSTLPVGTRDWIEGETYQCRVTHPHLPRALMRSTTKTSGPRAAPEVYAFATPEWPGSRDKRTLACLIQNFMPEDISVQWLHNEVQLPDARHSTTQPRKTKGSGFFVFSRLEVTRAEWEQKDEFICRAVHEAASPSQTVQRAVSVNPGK
Description: SPR, Ab captured, IgE analyte, pH 5.8, 25C. As for the experimental part:
(§3) An appropriate amount of Protein A/G (ACTIGEN) was fixed onto Sensor chip CM4 (GE Healthcare) by the amine coupling method to capture the antibodies of interest. Next, human IgE was made to interact with the antibodies captured onto the sensor chip by injecting a diluted IgE solution and a running buffer (used as a reference solution). For the running buffer, either of the buffers (1) and (2) above was used, and human IgE was diluted using the respective buffer. To regenerate the sensor chip, 10 mM glycine-HCl at pH 1.5 was used. All measurements were carried out at 25° C. KD (M) for human IgE was calculated for each antibody based on the association rate constant ka (1/Ms) and dissociation rate constant kd (1/s), which are kinetic parameters calculated from the sensorgrams obtained by the measurements. The BIACORE T100 Evaluation Software (GE Healthcare) was used to calculate each parameter.
(In general: SPR reads the build-up and loss of mass on a sensor chip optically.)

Test [5] concerns the target T2, human IgE. Description: SPR, Ab captured, IgE analyte, pH 7.4, 25C. As for the experimental part: as §3
Test [6] has as its target T3, soluble human FcγRIIb (human, UniProt P31994 43-217, limits assumed).
T3 construct: soluble His-tagged form; also called hFcγRIIb
T3 sequence (looked up): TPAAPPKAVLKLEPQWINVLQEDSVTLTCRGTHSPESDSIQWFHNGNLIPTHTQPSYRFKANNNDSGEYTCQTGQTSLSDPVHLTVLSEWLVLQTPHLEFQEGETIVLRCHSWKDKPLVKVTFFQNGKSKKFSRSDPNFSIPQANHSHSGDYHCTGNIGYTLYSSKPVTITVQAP
Description: SPR, Ab-IgE complex over captured hFcγRIIb, pH 7.4, 25C. As for the experimental part:
(§4) Regarding the produced Fc region variant-containing antibodies, binding assays between soluble human FcγRIIb and antigen-antibody complexes were performed using BIACORE T200 (GE Healthcare). Soluble human FcγRIIb (NCBI accession NM_004001.3) was produced in the form of a His-tagged molecule by a method known in the art. An appropriate amount of an anti-His antibody was fixed onto Sensor chip CM5 (GE Healthcare) by the amine coupling method using a His capture kit (GE Healthcare) to capture human FcγRIIb. Next, an antibody-antigen complex and a running buffer (as a reference solution) were injected, and interaction was allowed to take place with the human FcγRIIb captured onto the sensor chip. 20 mM N-(2-Acetamido)-2-aminoethanesulfonic acid, 150 mM NaCl, 1.2 mM CaCl₂, and 0.05% (w/v) Tween 20 at pH 7.4 was used as the running buffer, and the respective buffer was also used to dilute the soluble human FcγRIIb. To regenerate the sensor chip, 10 mM glycine-HCl at pH 1.5 was used. All measurements were carried out at 25° C. Analyses were performed based on binding (RU) calculated from sensorgrams obtained by the measurements, and relative values when the binding amount of Ab1H/Ab1L (original Ab1) was defined as 1.00 are shown. To calculate the parameters, the BIACORE T100 Evaluation Software (GE Healthcare) was used.

Test [7] deals with T3, soluble human FcγRIIb. Described as above. As for the experimental part: as §4
The source holds these as a separate data set.

Test [8] deals with T3, soluble human FcγRIIb. The description is as above. The protocol: as §4
The source holds these as a separate data set.

The target of test [9] is T2, human IgE. The test is described as follows: SPR, IgE on chip, Ab analyte, pH 5.8, 37C. As for the experimental part: (§5) Affinities of Ab2 and Ab3 for human IgE at pH 7.4 and pH 5.8 were evaluated as follows. The binding activity (dissociation constant KD (M)) of anti-hIgE antibodies toward hIgE were evaluated using BIACORE T200 (GE Healthcare). Measurements were carried out using the following two buffers as the running buffers: (1) 1.2 mM CaCl₂/0.05% tween 20, 20 mM ACES, 150 mM NaCl, pH 7.4; and (2) 1.2 mM CaCl₂/0.05% tween 20, 20 mM ACES, 150 mM NaCl, pH 5.8.
(§6) Then, to regenerate the sensor chip, 10 mM glycine-HCl at pH 1.5 was injected. All measurements were carried out at 37° C. Association rate constants ka (1/Ms) and dissociation rate constants kd (1/s) were calculated by analyzing the measurement results by curve-fitting using the BIACORE T200 Evaluation Software (GE Healthcare), and dissociation constants KD (M) were calculated based on those values.

The target in test [10] is T2, human IgE. Description: SPR, IgE on chip, Ab analyte, pH 7.4, 37C. The protocol: as §5, §6

As usually defined, the Kd is the free concentration of one partner at which half of the binding sites on the other are occupied at equilibrium, for simple one-to-one binding. A lower Kd goes with higher affinity. What is called koff is the rate constant with which the complex falls apart. Low readings indicate a long-lived complex, high ones a short-lived complex. As usually defined, the kon is the rate constant with which the complex forms. High values mean fast association, low ones slow association.

Substitutions are numbered along the chain they refer to. Like-named read-outs stand apart in the source and are kept apart here.

B1: H1009/L395 (antibody, human IgG1, kappa)
heavy: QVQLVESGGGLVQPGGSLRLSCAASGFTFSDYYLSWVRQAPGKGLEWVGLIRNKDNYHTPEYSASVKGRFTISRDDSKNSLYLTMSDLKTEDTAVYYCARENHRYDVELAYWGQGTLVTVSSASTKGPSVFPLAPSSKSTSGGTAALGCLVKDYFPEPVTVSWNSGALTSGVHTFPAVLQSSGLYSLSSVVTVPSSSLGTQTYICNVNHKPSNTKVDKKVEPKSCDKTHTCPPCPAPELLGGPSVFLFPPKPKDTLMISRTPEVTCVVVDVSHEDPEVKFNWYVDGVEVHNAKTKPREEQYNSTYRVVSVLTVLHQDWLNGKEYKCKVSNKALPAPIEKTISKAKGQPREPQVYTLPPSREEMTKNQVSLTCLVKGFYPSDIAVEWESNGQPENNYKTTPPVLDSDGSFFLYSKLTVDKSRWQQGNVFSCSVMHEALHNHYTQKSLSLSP
light: DIQMTQSPSSLSASVGDRVTITCRASEIIYSYLAWYQQKPGKAPKLLIYKAKTHADGVPSRFSGSGSGTDFTFTISSLQPEDIATYYCKHHFGFPRTFGQGTKVEIKRTVAAPSVFIFPPSDEQLKSGTASVVCLLNNFYPREAKVQWKVDNALQSGNSQESVTEQDSKDSTYSLSSTLTLSKADYEKHKVYACEVTHQGLSSPVTKSFNRGEC
notes: also called H1009/L0395; H1009/L395-IgG1
As for B1, the “Ratio of IL-8 Amount (Thermal Acceleration/Initial)” value with human IL-8 [1] came out at 0.64.

B2: H1023/L0442 (antibody, human IgG1, kappa, name in Kabat numbering, V domains shown)
VH: QVQLVESGGGLVQPGGSLRLSCAASGFTFSDYYLSWVRQAPGKGLEWVGLIRNKDNGYHPEYSASVKGRFTISRDDSKNSLYLTMSDLKTEDTAVYYCARENHRYDVELAYWGQGTLVTVSS
VL: DIQMTQSPSSLSASVGDRVTITCRASEIIYEYLAWYQQKPGKAPKLLIYKAKTHADGVPSRFSGSGSGTDFTFTISSLQPEDIATYYCKHHFGFPRTFGQGTKVEIKR
Regarding B2, in the test with human IL-8 [2], the Kd was 7100 nM and the koff was 0.017 s⁻¹. The molecule further registered a Kd with human IL-8 [3] of 0.12 nM.

B3: H1023/L0395 (antibody, human IgG1, kappa, name in Kabat numbering, V domains shown)
VH: B2 VH
VL: B2 VL with E31S
Turning to B3, the Kd in the test with human IL-8 [2] was determined as 92 nM; in the test with human IL-8 [3], 0.076 nM. This molecule also yielded a koff in the test with human IL-8 [2] of 0.018 s⁻¹.

B4: Ab1 (antibody, human IgG1, kappa)
heavy: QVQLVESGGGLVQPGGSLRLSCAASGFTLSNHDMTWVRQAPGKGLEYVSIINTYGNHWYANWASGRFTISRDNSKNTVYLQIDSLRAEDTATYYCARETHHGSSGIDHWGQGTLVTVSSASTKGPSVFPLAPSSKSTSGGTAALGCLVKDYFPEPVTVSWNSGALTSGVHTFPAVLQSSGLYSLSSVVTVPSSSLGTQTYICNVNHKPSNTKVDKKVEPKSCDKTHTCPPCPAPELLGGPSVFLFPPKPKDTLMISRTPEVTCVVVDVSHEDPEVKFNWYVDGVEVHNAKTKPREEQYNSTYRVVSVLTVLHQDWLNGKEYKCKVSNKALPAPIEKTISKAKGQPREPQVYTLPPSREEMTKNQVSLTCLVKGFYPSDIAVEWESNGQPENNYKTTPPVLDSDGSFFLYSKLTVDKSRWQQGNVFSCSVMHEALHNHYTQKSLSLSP
light: DIQMTQSPSSVSASVGDRVTITCQASESIYSGLAWYQQKPGQPPKLLIYDHSTLASGVPSRFSGSGSGTEYALTISSLQPEDFATYYCQHADYAHHSDNVFGGGTKVEIKRTVAAPSVFIFPPSDEQLKSGTASVVCLLNNFYPREAKVQWKVDNALQSGNSQESVTEQDSKDSTYSLSSTLTLSKADYEKHKVYACEVTHQGLSSPVTKSFNRGEC
notes: also called Ab1H/Ab1L; original Ab1; copies: 2 + 2
Take B4: the Kd was 2400 nM with human IgE [4] and 2.3 nM with human IgE [5]. The koff came out at 0.039 s⁻¹ with human IgE [4] and 0.006 s⁻¹ with human IgE [5]. In addition, the kon was determined as 16000 M⁻¹ s⁻¹ with human IgE [4] and 2.7e+06 M⁻¹ s⁻¹ with human IgE [5]. For the same molecule, the “BIACORE fold (relative binding, original Ab1=1.00)” value in the test with soluble human FcγRIIb [6], in the test with soluble human FcγRIIb [7] and in the test with soluble human FcγRIIb [8] was 1 fold each time.

B5: Ab2 (antibody, human IgG1, kappa, V domains shown)
VH: QSVEESGGRLVTPGTPLTLTCTVSGFSLSSFNMDWVRQAPGEGLEWIGAVSTGGSAYYAKWAKGRFTISKTSTAVDLKITSPTTEDTATYFCARVDSSGWGYFDLWGQGTLVTVSS
VL: AIEMTQTPFSVSAAVGGTVTINCQASENIYSSLAWYQQKPGQPPKLLIYYASNLASGVSSRFKGSGSGTDFTLTISDLECADAATYYCQSYYFISSTDFNAFGGGTEVVVKR
With B5, in the test with human IgE [9], the affinity, expressed as Kd, was 97 nM; the koff is 0.053 s⁻¹; the kon came to 550000 M⁻¹ s⁻¹. In the test with human IgE [10], the Kd is 1.5 nM, the koff came to 0.0045 s⁻¹ and the kon turned out to be 2.9e+06 M⁻¹ s⁻¹.

B6: Ab3 (antibody, human IgG1, kappa, V domains shown)
VH: QSLEESGGDLVKPGASLTLTCTTSVFDLSSYYWICWVRQAPGKGLEWIACVYATSGSTDYATWAKGRLTISKASSTTVTLQMTSLTAADTATYFCARGGIYGGDGFNLWGPGTLVTVSS
VL: AFELTQTPASVEAAVGGTVTINCQASESISNWLAWYQQKPGQPPKLLIYRASTLTSGVPSRFKGSGSGTEFTLTISDLECADAATYYCQSYDPSIIDGFAFGGGTEVVVKR
In the test with human IgE [9], B6 yielded a Kd of 230 nM, a koff of 0.033 s⁻¹ and a kon of 140000 M⁻¹ s⁻¹. In addition, in the test with human IgE [10], the Kd amounted to 4.9 nM, the off-rate (koff) stood at 0.0079 s⁻¹ and the kon came out at 1.6e+06 M⁻¹ s⁻¹.

B7: H1000/L0442 (antibody, human IgG1, kappa, name in Kabat numbering, V domains shown)
VH: B2 VH with D31E, G57H, Y58H, H59T
VL: B2 VL
Molecule B7 gave a Kd with human IL-8 [2] of 71000 nM. In other words, the double-digit micromolar range.

B8: H1040/L0442 (antibody, human IgG1, kappa, name in Kabat numbering, V domains shown)
VH: B2 VH with D31E, G57H, Y58H
VL: B2 VL
With B8, the “Ratio of IL-8 Amount (Thermal Acceleration/Initial)” value with human IL-8 [1] was found to be 0.49.

B9: H1050/L0395 (antibody, human IgG1, kappa, name in Kabat numbering, V domains shown)
VH: B2 VH with D31E, G57Y, Y58H, H59T
VL: B2 VL with E31S
In the test with human IL-8 [2], B9 gave a Kd of 7700 nM.

The values above are taken from US20180258163A1 (Chugai, published 2018).
